In PMC5727538, “Comprehensive analysis of the catalytic and structural properties of a mu-class glutathione s-transferase from Fasciola gigantica” (Scientific Reports, 2017):

Biological target: the molecule itself
Experiment: SEC; Superdex 200 10/300 GL on AKTA-FPLC, 20 mM phosphate buffer pH 7.5, 150 mM NaCl, 0.3 mL/min; calibrated with molecular weight markers; elution at 15.4 mL, about 50 kDa

B1: mu-class glutathione S-transferase from Fasciola gigantica (FgGST1) (enzyme)
chain: MPATLGYWKLRGLAQPIRLLLEFVGEKYEEQIYERDDGEKWFSKKFELGLDLPNLPYYIDDKCKLTQSLAILRYIADKHGMIGSTPEERARVSMIEGAAVDLRQGLSRISYDPKFEQLKEGYLKDLPTTMKMWSDFLGKNLYLRGTSVSHVDFMVYEALDAIRYLEPHCLDHFPNLQQFMSRIEALPSIKAYMESNRFIKWPLNGWHAQFGGGDAPPSHEKK
- stoichiometry N: 2
